1 molecule from paper PMC5934765 can be followed below.

The assay addresses α-synuclein (AS) expressed in non-mitotic SH-SY5Y cells, P37840. Briefly: proximity ligation. Conditions: remark: other sources report otherwise.

B1: SERCA2 in SH-SY5Y cells, P16615 1-1042 (enzyme)
chain: MENAHTKTVEEVLGHFGVNESTGLSLEQVKKLKERWGSNELPAEEGKTLLELVIEQFEDLLVRILLLAACISFVLAWFEEGEETITAFVEPFVILLILVANAIVGVWQERNAENAIEALKEYEPEMGKVYRQDRKSVQRIKAKDIVPGDIVEIAVGDKVPADIRLTSIKSTTLRVDQSILTGESVSVIKHTDPVPDPRAVNQDKKNMLFSGTNIAAGKAMGVVVATGVNTEIGKIRDEMVATEQERTPLQQKLDEFGEQLSKVISLICIAVWIINIGHFNDPVHGGSWIRGAIYYFKIAVALAVAAIPEGLPAVITTCLALGTRRMAKKNAIVRSLPSVETLGCTSVICSDKTGTLTTNQMSVCRMFILDRVEGDTCSLNEFTITGSTYAPIGEVHKDDKPVNCHQYDGLVELATICALCNDSALDYNEAKGVYEKVGEATETALTCLVEKMNVFDTELKGLSKIERANACNSVIKQLMKKEFTLEFSRDRKSMSVYCTPNKPSRTSMSKMFVKGAPEGVIDRCTHIRVGSTKVPMTSGVKQKIMSVIREWGSGSDTLRCLALATHDNPLRREEMHLEDSANFIKYETNLTFVGCVGMLDPPRIEVASSVKLCRQAGIRVIMITGDNKGTAVAICRRIGIFGQDEDVTSKAFTGREFDELNPSAQRDACLNARCFARVEPSHKSKIVEFLQSFDEITAMTGDGVNDAPALKKAEIGIAMGSGTAVAKTASEMVLADDNFSTIVAAVEEGRAIYNNMKQFIRYLISSNVGEVVCIFLTAALGFPEALIPVQLLWVNLVTDGLPATALGFNPPDLDIMNKPPRNPKEPLISGWLFFRYLAIGCYVGAATVGAAAWWFIAADGGPRVSFYQLSHFLQCKEDNPDFEGVDCAIFESPYPMTMALSVLVTIEMCNALNSLSENQSLLRMPPWENIWLVGSICLSMSLHFLILYVEPLPLIFQITPLNVTQWLMVLKISLPVILMDETLKFVARNYLEPGKECVQPATKSCSFSACTDGISWPFVLLIMPLVIWVYSTDTNFSDMFWS
B1 yielded a reduction of the PLA signal by 0.5 μM CPA of 50%.
